In the supplement of paper PMC9170038:

System: MS2 coat protein
Experiment: apparent KD of MS2 coat protein; designed switch direction (-1 OFF switch, 1 ON switch): -1; higher = weaker reporter binding
Procedure, shortened: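 The buffer was Tris-HCl pH 7.5 with KCl, MgCl2, BSA, DTT, tRNA and Tween-20. In it, SNAP-549-labelled MS2 coat protein was titrated in doubling steps from 0.7 or 1.5 nM to 3 µM over chip-bound RNA switches transcribed by stalled E. coli RNA polymerase on Illumina chips. Apparent KD is the per-design median over clusters of curve fits to normalised fluorescence.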

[1] = input ligand: microRNA oligo, concentration not stated
[2] = Eterna round: R95, input ligand: microRNA oligo, concentration not stated
[3] = Eterna round: R95, input ligand: FMN 200 uM
[4] = Eterna round: R95, input ligand: none

| Sequence | apparent KD of MS2 coat protein (input ligand: FMN 200 uM) [µM] | apparent KD of MS2 coat protein (input ligand: none) [µM] | apparent KD of MS2 coat protein [1] [µM] | apparent KD of MS2 coat protein [2] [µM] | apparent KD of MS2 coat protein [3] [µM] | apparent KD of MS2 coat protein [4] [µM] |
| --- | --- | --- | --- | --- | --- | --- |
| GCUCUCUCUCUGUCUCUCUACAUGAGGAUCACCCAUGUGUCUCGCUCGCUCUCUCUCUCUCUUUCUCUCUCUCUCUU [Default title] (Eterna round: R97, puzzle: Sensor, turn-off variant 1) | 0.104 | 0.135 | – | – | – | – |
| GCUGCACAUGUAGGAUAUCUGCACGUGUAGUGCAGAGAAGGACAUGAGGAUCACCCAUGUAGAUCAGCAGCAAUUAAUUUAAUU [ENG1/6-A2] (Eterna round: R96, puzzle: Exclusion NG 1) | 0.15 | 0.242 | 0.273 | – | – | – |
| GCUGCGCGAGGAUAUGCGGUUCGGGCGGUGGCCGCUGGCGGACAUGAGGAUCACCCAUGUAGAAGGCGUGCGGG [Apr-15 SS2-61] (puzzle: Exclusion 2) | – | – | – | 0.0149 | – | – |
| GCUGCGCGAGGAUAUGCGGUUUGUGCUUUGGCCCAUGGCGUACAUGAGGAUCACCCAUGUAGAAGGCGUGUGGG [Apr-15 SS2-52] (puzzle: Exclusion 2) | – | – | – | 0.012 | – | – |
| GCUGGAAAAGGAUAUACAUAACGUGCGUCAGCACGAGACCUACAUGAGGAUCACCCAUGUAGAAGGUUUCCAGC [EX2 #75] (Eterna round: R97, puzzle: Exclusion 2) | 0.0228 | 0.0168 | – | – | – | – |
| GCUGGACAAGGAUAUAUAUGACGUGCUUCGGCACGAAGAUCACAUGAGGAUCACCCAUGUAGAAGGUGUCCAGC [E2/8-C2] (Eterna round: R97, puzzle: Exclusion 2) | 0.594 | 0.0918 | – | – | – | – |
| GCUGGUCAAGGAUAUACAAUCGUGCUUCGGCACGUAAGAUCACAUGAGGAUCACCCAUGUAGAAGGUGACCAGC [E2/1-C1] (Eterna round: R97, puzzle: Exclusion 2) | 0.507 | 0.0372 | – | – | – | – |
| GCUGGUCAAGGAUAUGCAAUCGUGCUUCGGCACGUAAGGUCACAUGAGGAUCACCCAUGUAGAAGGUGACCAGC [E2/4-C1] (Eterna round: R97, puzzle: Exclusion 2) | 0.0278 | 0.0184 | – | – | – | – |
| GCUGGUCGAGGAUAUGCAAUCGUGCUUCGGCACGUAAGAUCACAUGAGGAUCACCCAUGUAGAAGGUGACCAGC [E2/3-B1] (Eterna round: R97, puzzle: Exclusion 2) | 0.0312 | 0.0178 | – | – | – | – |
| GCUGGUGUGCAGGAUAUUUAAUUGCAAAUAAAUAAAGAAGGGCAUACAUGAGGAUCACCCAUGUCGUCGUUGCG [Eternabot (L1) Solution 98] (Eterna round: R97, puzzle: Exclusion 6) | 0.0392 | 0.0327 | – | – | – | – |
| GCUUCGGCAGGAUAUACAAGCUUCGGCUGAAAAGUUGAAGUACAUGAGGAUCACCCAUGUAGAAGGGUUGAAGU [-25.7, -24.2 kcal, A 32% 3 bis, 3 bis] (Eterna round: R97, puzzle: Exclusion 2) | 0.0456 | 0.0601 | – | – | – | – |
| GCUUGGCGAGGAUAUACAUGAGGAUCACCCAUGUGAGAGAAUAAAGUGAGGAAGAAAAGUAGAAGGCGCUGAGG [Mat - Exclusion 3 - Mod of Salish D58] (Eterna round: R96, puzzle: Exclusion 3) | 0.181 | 0.0545 | 0.045 | – | – | – |
| GCUUGGCGAGGAUAUACAUGAGGAUCACCCAUGUGAGAGAAUAAAGUGAGGAAGAAAAGUAGAAGGCGCUGAGG [Mat - Exclusion 3 - Mod of Salish D58] (puzzle: Exclusion 3) | – | – | – | 0.0404 | 0.199 | 0.0404 |
| GCUUGUGUUGAGGAUAUGCGCCGGCUCGCUGGCGCAGAAGGCGGCACAUGAGGAUCACCCAUGUCAGUUCGCGG [salish99_ex6_r004_009] (Eterna round: R97, puzzle: Exclusion 6) | 0.321 | 0.0938 | – | – | – | – |
| GGAAAGGUAGGAUAUACGAAGAAAAAGGGUAGAAUAAUAACACAUGAGGAUCACCCAUGUAGAAGGACCAAAGG [Mat - Exclusion 2 - Mod of my Tesla design - D6] (puzzle: Exclusion 2) | – | – | – | 0.0231 | 0.0405 | 0.0193 |
| GGAAGAGAGUUAGGAUAUAUAAGAAGAAUGUGGGUAGAAGGAACGAAACAUGAGGAUCACCCAUGUCCCAUGUUGAGGAGGAGG (Eterna round: R96, puzzle: Exclusion NG 1) | 1.53 | 0.56 | 0.349 | – | – | – |

| Sequence | apparent KD of MS2 coat protein (input ligand: FMN 200 uM) [µM] | apparent KD of MS2 coat protein (input ligand: none) [µM] | apparent KD of MS2 coat protein [1] [µM] | apparent KD of MS2 coat protein [2] [µM] | apparent KD of MS2 coat protein [3] [µM] | apparent KD of MS2 coat protein [4] [µM] |
| --- | --- | --- | --- | --- | --- | --- |
| GGAAUACAUGAGGAUCACCCAUGUAAGGAUAUGCUGAAUAUUACGGAAUAAACGUGCAGCAGAAGGUACAAAGG [Mat - Mod of my Eli Mod D47] (puzzle: Exclusion 1) | – | – | – | 0.0834 | 0.105 | 0.125 |
| GGACAUAAAGUCAGGAUAUUAAGGCGAACAAGCGAUGAGAAGGGACAUGAGGAUCACCCAUGUGAUUCGCAUCA [Raerce] (Eterna round: R97, puzzle: Brourd's mod of Exclusion 4) | 0.0327 | 0.0241 | – | – | – | – |
| GGACCACAUGAGGAUCACCCAUGUCAGGAUAUGACGGCGUCGGCGAAAGCGGAGGCGGUCAGAAGGGACGGAAA [AK-MS2ROC-r4-exclusion1-9.0] (Eterna round: R97, puzzle: Exclusion 1) | 0.0846 | 0.034 | – | – | – | – |
| GGAGCGAUUCUCUUAGUUAACAUGAGGAUCACCCAUGUGUACAAGCUCUUAUUUUGCUCGUCUUACCGAGAGUUGCC [Tienve] (puzzle: Sensor v3, turn-off variant 1) | – | – | – | 0.0743 | 0.0226 | 0.0247 |
| GGAUAAAAGUCAGGAUAUACGUAUCGCUAGCGAGUAGAAGGGACACAUGAGGAUCACCCAUGUGAGUUCUCAAUAAGAAACACG [Prohibition 61 - Jieux - Exclusion NG 1] (Eterna round: R96, puzzle: Exclusion NG 1) | 0.0455 | 0.0195 | 0.0163 | – | – | – |
| GGAUAUAACGUAGGAUAUCAGAGAAACAGACGAUGAGAAGGACGACAUGAGGAUCACCCAUGUGAUCUAUCAAUAUUAUACAUG [Prohibition 98 - Jieux - Exclusion NG 1] (Eterna round: R96, puzzle: Exclusion NG 1) | 0.874 | 0.712 | 0.434 | – | – | – |
| GGAUAUAAUGUGAGGAUAUCUGCGAUACCUAGUCGAGAGAAGGCACAUGAGGAUCACCCAUGUGAGGACCUCGU [Eternabot (L1) Solution 98] (Eterna round: R97, puzzle: Brourd's mod of Exclusion 4) | 0.0296 | 0.0194 | – | – | – | – |
| GGAUCGAAAGUGAGGAUAUACCUAUGGAAACAUAGGUAGAAGGCACAUGAGGAUCACCCAUGUUCCUACGGUCC [Mat - Exclusion 4 - Eli Mod - D10] (Eterna round: R97, puzzle: Brourd's mod of Exclusion 4) | 0.113 | 0.02 | – | – | – | – |
| GGAUCGAGUGUGAGGAUAUACCUAUGGAAACAUAGGUAGAAGGCACAUGAGGAUCACCCAUGUUCCUACGGUCC [Mat - Exclusion 4 - Eli Mod - D8] (Eterna round: R97, puzzle: Brourd's mod of Exclusion 4) | 0.658 | 0.0755 | – | – | – | – |
| GGAUCGUAUGUCAGGAUAUACCACUGGAUACAGUGGUAGAAGGGACAUGAGGAUCACCCAUGUCCUAUCGAUCC [Fiskers BMX 4 - 51] (puzzle: Brourd's mod of Exclusion 4) | – | – | – | 0.012 | – | – |
| GGAUCGUAUGUCAGGAUAUACCACUGGAUACAGUGGUAGAAGGGACAUGAGGAUCACCCAUGUUCUAUCGAUCC [Fiskers BMX 4 - 53] (puzzle: Brourd's mod of Exclusion 4) | – | – | – | 0.0125 | – | – |
| GGAUCGUAUGUGAGGAUAUACCACUGGAUACAGUGGUAGAAGGCACAUGAGGAUCACCCAUGUCCUAUCGAUCC [Fiskers BMX 4 - 54] (puzzle: Brourd's mod of Exclusion 4) | – | – | – | 0.132 | – | – |
| GGAUCUACUGAGGAUAUUAUAUCACCCGACUGAUAAGAAGGCAGUACAUGAGGAUCACCCAUGUGGGUAGCCAU [Polaris8] (Eterna round: R97, puzzle: Exclusion 6) | 0.0643 | 0.0348 | – | – | – | – |
| GGAUGUCUAAAGGAUAUGCUGGAUUAAUAUCUGGCAGAAGGUUGGACAUGAGGAUCACCCAUGUAAAUUCUGCC [Omei Ex6 A11] (Eterna round: R97, puzzle: Exclusion 6) | 0.0246 | 0.0173 | – | – | – | – |
| GGAUUGUCAGGAUAUCUUAUACUUCAUAAGUGAGGAUAAAUAGAGAAGGGACAUGAGGAUCACCCAUGUAAUAA [Exclusion 4 S1] (Eterna round: R97, puzzle: Exclusion 4) | 0.152 | 0.0368 | – | – | – | – |
